Test results taken from publication doi:10.1101/2020.10.08.331538 (bioRxiv, 2020).
Numbering of substitutions follows the chain as printed. Numbers in names are those of the source. Where “and” joins values, the source holds several entries; their conditions need not be identical. Equal entries are not always repeated.

Key:
[1] = molecular target: Pv-M17Δ53-78, Pv-M17 N-terminal loop deletion mutant (Plasmodium vivax) (UniProt A5K3U9); test: crystal structure
AUC [2] = molecular target: the molecule itself; test: AUC
SEC-MALS = molecular target: the molecule itself; test: SEC-MALS
AUC [3] = molecular target: the molecule itself; test: AUC; remark: listed apart in the source
SEC = molecular target: the molecule itself; test: SEC
AUC [4] = molecular target: the molecule itself; test: AUC; remark: listed apart in the source

Pv-M17Δ53-78, Pv-M17 N-terminal loop deletion mutant (from UniProt A5K3U9 73-621) (enzyme)
stoichiometry N [1]: 6

B1: PfA-M17, M17 aminopeptidase from Plasmodium falciparum, wild type (enzyme)
chain: MASEVPQVVSLDPTSIPIEYNTPIHDIKVQVYDIKGGCNVEEGLTIFLVNNPGKENGPVKISSKVNDKNVSEFLKDENMEKFNVKLGTSKHFYMFNDNKNSVAVGYVGCGSVADLSEADMKRVVLSLVTMLHDNKLSKLTVVFEINVDKNLFRFFLETLFYEYMTDERFKSTDKNVNMEYIKHLGVYINNADTYKEEVEKARVYYFGTYYASQLIAAPSNYCNPVSLSNAAVELAQKLNLEYKILGVKELEELKMGAYLSVGKGSMYPNKFIHLTYKSKGDVKKKIALVGKGITFDSGGYNLKAAPGSMIDLMKFDMSGCAAVLGCAYCVGTLKPENVEIHFLSAVCENMVSKNSYRPGDIITASNGKTIEVGNTDAEGRLTLADALVYAEKLGVDYIVDIATLTGAMLYSLGTSYAGVFGNNEELINKILNSSKTSNEPVWWLPIINEYRATLNSKYADINNISSSVKASSIVASLFLKEFVQNTAWAHIDIAGVSWNFKARKPKGFGVRLLTEFVLNDAL
stoichiometry N (AUC [2]): 2
stoichiometry N (SEC-MALS): ~6
stoichiometry N (AUC [3]): 6

B2: PfA-M17 (D379A + E461L) (enzyme)
chain: B1 chain with D296A, E378L
binding result (AUC [2]): binds

B3: Pv-M17, M17 aminopeptidase from Plasmodium vivax, wild type (residues 73 – 621) (enzyme)
chain: MATTVPQVVSLDPTTIPIDYHTPIDDLSIEVKDISAEACPADEGLIVFLLNSAPKHSSSGGSGGNGGSAGSSGNGEGGAQIKINSSVKDNTINEFLKEGNMENFTGKLGTSKSFYIANDQKKYVSLAYVGCGPANEETELEIRKVAYALVTLLHDSKHKKVSIIFEIKIEEALFRFFLEHLFYEYVTDERFKSADKSTETDFIKNLSLHIANADAYKGQIDKARVYFYGTYYAAQLIAAPSNYCNPVSLSNAAVELAQKVNLECKILDVKELEELKMGAYLSVGKGSMYPNKFIHLTYKGAQTGASQNEKKKIALIGKGITFDSGGYNLKAAPGSMIDLMKFDMSGCAAVLGCAYCIGTIKPDNVEVHFLSAVCENMVSKNSYRPGDIITASNGKTIEVGNTDAEGRLTLADALVYAEKLGVDYIVDIATLTGAMLYSLGTSYAGVFGNNDQLINKILSSSKTSNEPVWWLPIINEYRSSLNSKYADLNNISSSVKASSVVASLFLKEFIENTPWAHIDIAGVSWNFKARKPKGFGVRLLTEFVLNDAV
stoichiometry N (SEC): 4
stoichiometry N (AUC [2]): 2
stoichiometry N (AUC [4]): 6
stoichiometry N (SEC-MALS): ~6 and ~2
